Measured values reported in article PMC12494544 (The Journal of Biological Chemistry, 2025).

Molecular target: the molecule itself
Assay: crystal structure; PseM (28-186) at 27 mg/ml; 0.1 M Mes monohydrate pH 7.0, 2.0 M NaCl, 1% benzamidine-HCl, 291 K; SAD, 2.0 Å, space group P4(3)2(1)2; homodimer in the asymmetric unit

B1: N-terminal-truncated PseM (residues from 28 to 186) (enzyme)
chain: STGDYWIVYGKGERYNNEVFVANATGILQQPKGIQSAQIIQLFEDRSMPTLTAYEVQFKCKERRVRFDNARAMRRIDNVITNVKTVDGWIDPEKYDYWLQRSFAFVCAPAIRDNNQMLPLGKMPIARMVQTVQAMFVELQGVQAKKQTMRDLDAMLGNE
notes: PseM (PA0989), P. aeruginosa, residues 28 to 186, without the N-terminal signal peptide
- stoichiometry N: 2
